test system: Escherichia coli TOP10; experiment: shrunken log2 fold change of peptide-encoding DNA abundance (4.5 h post-induction vs induction); higher = less antimicrobial activity (less host growth inhibition); conditions: time post-induction: 4.5 h; library: site-saturation at positions 5, 18, 19, 20
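Also: peptides expressed intracellularly from a pBAD plasmid library in pooled LB shake-flask culture, induced with 0.3% L-arabinose, DNA abundance read by NGS, three biological replicates, DESeq2 with apeglm shrinkage.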

| Sequence | shrunken log2 fold change |
| --- | --- |
| RRIRQRPPRLPRPRPRPYPFPRP | -0.035 |
| RRIRQRPPRLPRPRPRPRWFPRP | 0.0284 |
| RRIRARPPRLPRPRPRPDPHPRP | 0.373 |
| RRIRIRPPRLPRPRPRPFHDPRP | -0.374 |
| RRIRARPPRLPRPRPRPMALPRP | 0.272 |
| RRIRCRPPRLPRPRPRPWAFPRP | -0.0432 |
| RRIRDRPPRLPRPRPRPSNKPRP | -0.325 |
| RRIRKRPPRLPRPRPRPWVVPRP | 0.423 |
| RRIRSRPPRLPRPRPRPMTEPRP | 0.0273 |
| RRIRIRPPRLPRPRPRPSIRPRP | -0.212 |
| RRIRPRPPRLPRPRPRPIAGPRP | 0.0445 |
| RRIRGRPPRLPRPRPRPWSIPRP | -0.108 |
| RRIRMRPPRLPRPRPRPQYRPRP | -0.0939 |
| RRIRNRPPRLPRPRPRPYCEPRP | -0.469 |
| RRIRPRPPRLPRPRPRPVQDPRP | -0.0784 |
| RRIRKRPPRLPRPRPRPKCFPRP | 0.00084 |
| RRIRIRPPRLPRPRPRPRCNPRP | -0.393 |
| RRIRIRPPRLPRPRPRPHYYPRP | -0.413 |
| RRIRSRPPRLPRPRPRPDEKPRP | -0.0769 |
| RRIRLRPPRLPRPRPRPAVQPRP | -0.249 |
| RRIRCRPPRLPRPRPRPPDYPRP | 0.0368 |
| RRIRDRPPRLPRPRPRPLIMPRP | -0.0616 |

| Sequence | shrunken log2 fold change |
| --- | --- |
| RRIRARPPRLPRPRPRPWHAPRP | 0.288 |
| RRIRIRPPRLPRPRPRPESGPRP | -0.135 |
| RRIRCRPPRLPRPRPRPLCKPRP | -0.541 |
| RRIRVRPPRLPRPRPRPISHPRP | -0.326 |
| RRIRQRPPRLPRPRPRPRTFPRP | -0.471 |
| RRIRERPPRLPRPRPRPQSGPRP | 0.00436 |
| RRIRSRPPRLPRPRPRPLWTPRP | 0.0886 |
| RRIRLRPPRLPRPRPRPITVPRP | -0.216 |
| RRIRTRPPRLPRPRPRPVMRPRP | -0.0406 |
| RRIRPRPPRLPRPRPRPWHAPRP | -0.0857 |
| RRIRERPPRLPRPRPRPNRFPRP | 0.0105 |
| RRIRKRPPRLPRPRPRPCDTPRP | 0.015 |
| RRIRSRPPRLPRPRPRPFPQPRP | -0.201 |
| RRIRARPPRLPRPRPRPFLHPRP | 0.0154 |
| RRIRIRPPRLPRPRPRPVFDPRP | -0.371 |
| RRIRFRPPRLPRPRPRPFWIPRP | -0.357 |
| RRIRLRPPRLPRPRPRPLCFPRP | -0.233 |
| RRIRGRPPRLPRPRPRPSEWPRP | 0.393 |
| RRIRHRPPRLPRPRPRPMINPRP | -0.305 |
| RRIRPRPPRLPRPRPRPESCPRP | 0.239 |
| RRIRQRPPRLPRPRPRPHNTPRP | -0.902 |
| RRIRVRPPRLPRPRPRPAFVPRP | 0.00544 |

| Sequence | shrunken log2 fold change |
| --- | --- |
| RRIRTRPPRLPRPRPRPAMPPRP | 0.131 |
| RRIRVRPPRLPRPRPRPGMYPRP | -0.241 |
| RRIRLRPPRLPRPRPRPNKYPRP | -0.742 |
| RRIRTRPPRLPRPRPRPQMYPRP | -0.148 |
| RRIRQRPPRLPRPRPRPEANPRP | 0.0119 |
| RRIRKRPPRLPRPRPRPVRMPRP | 0.0401 |
| RRIRYRPPRLPRPRPRPAMDPRP | -0.256 |
| RRIRPRPPRLPRPRPRPEQIPRP | 0.0118 |
| RRIRWRPPRLPRPRPRPNDMPRP | 0.199 |
| RRIRFRPPRLPRPRPRPKVVPRP | 0.291 |
| RRIRGRPPRLPRPRPRPKSPPRP | 0.677 |
| RRIRQRPPRLPRPRPRPKERPRP | -0.00138 |
| RRIRYRPPRLPRPRPRPRKCPRP | -0.247 |
| RRIRTRPPRLPRPRPRPWHEPRP | 0.111 |
| RRIRSRPPRLPRPRPRPYMQPRP | -0.145 |
| RRIRSRPPRLPRPRPRPEMWPRP | 0.67 |
| RRIRARPPRLPRPRPRPGMWPRP | 0.485 |
| RRIRRRPPRLPRPRPRPFRSPRP | -0.0534 |
| RRIRKRPPRLPRPRPRPTIGPRP | 0.0992 |
| RRIRRRPPRLPRPRPRPRNSPRP | -0.0834 |
| RRIRKRPPRLPRPRPRPGGEPRP | 0.753 |
| RRIRFRPPRLPRPRPRPWMQPRP | -0.139 |

| Sequence | shrunken log2 fold change |
| --- | --- |
| RRIRERPPRLPRPRPRPHQMPRP | -0.0399 |
| RRIRLRPPRLPRPRPRPMIIPRP | -0.407 |
| RRIRERPPRLPRPRPRPTWFPRP | 0.118 |
| RRIRVRPPRLPRPRPRPQPMPRP | 2.31 |
| RRIRPRPPRLPRPRPRPPWMPRP | 0.407 |
| RRIRPRPPRLPRPRPRPCAIPRP | -1.01 |
| RRIRGRPPRLPRPRPRPLWEPRP | 1.51 |
| RRIRGRPPRLPRPRPRPEIMPRP | 1.33 |
| RRIRNRPPRLPRPRPRPSFLPRP | -0.473 |
| RRIRRRPPRLPRPRPRPGRLPRP | 0.728 |
| RRIRWRPPRLPRPRPRPKKHPRP | 0.293 |
| RRIRRRPPRLPRPRPRPCYLPRP | -0.499 |
| RRIRTRPPRLPRPRPRPCARPRP | -0.187 |
| RRIRKRPPRLPRPRPRPMPEPRP | -0.0371 |
| RRIRKRPPRLPRPRPRPLWCPRP | 0.0281 |
| RRIRYRPPRLPRPRPRPPYMPRP | -0.43 |
| RRIRQRPPRLPRPRPRPHNMPRP | -0.283 |
| RRIRVRPPRLPRPRPRPYHHPRP | -0.0938 |
| RRIRQRPPRLPRPRPRPQTDPRP | 0.00346 |
| RRIRSRPPRLPRPRPRPDFEPRP | -0.0501 |
| RRIRKRPPRLPRPRPRPSPFPRP | 0.0443 |
| RRIRVRPPRLPRPRPRPKIHPRP | -0.205 |

| Sequence | shrunken log2 fold change |
| --- | --- |
| RRIRTRPPRLPRPRPRPLWIPRP | -0.331 |
| RRIRHRPPRLPRPRPRPYMFPRP | -0.319 |
| RRIRGRPPRLPRPRPRPFETPRP | 2.8 |
| RRIRPRPPRLPRPRPRPWKDPRP | -0.0368 |
| RRIRARPPRLPRPRPRPRKYPRP | 0.0773 |
| RRIRHRPPRLPRPRPRPQHNPRP | 0.22 |
| RRIRHRPPRLPRPRPRPGYRPRP | -0.00177 |
| RRIRFRPPRLPRPRPRPHIDPRP | -0.335 |
| RRIRKRPPRLPRPRPRPKWFPRP | -0.039 |
| RRIRARPPRLPRPRPRPAREPRP | 0.835 |
| RRIRFRPPRLPRPRPRPPIRPRP | -0.0123 |
| RRIRARPPRLPRPRPRPCITPRP | 0.178 |
| RRIRYRPPRLPRPRPRPSVMPRP | -0.194 |
| RRIRPRPPRLPRPRPRPGWNPRP | -0.055 |
| RRIRLRPPRLPRPRPRPCFHPRP | -0.49 |
| RRIRYRPPRLPRPRPRPVPHPRP | -0.262 |
| RRIRFRPPRLPRPRPRPRMAPRP | 0.375 |
| RRIRTRPPRLPRPRPRPPGNPRP | -0.0517 |
| RRIRARPPRLPRPRPRPAHKPRP | 0.664 |
| RRIRTRPPRLPRPRPRPHEPPRP | -0.197 |
| RRIRSRPPRLPRPRPRPHKTPRP | -0.258 |

Reference: the supplement of paper PMC9112550, “Optimization of the antimicrobial peptide Bac7 by deep mutational scanning” (BMC Biology, 2022)
